This assay deals with GAD (GAL4 activation domain alone, from pGAD) (yeast, UniProt P04386). Put plainly: yeast GAL4 two-hybrid, fusion tested against the complementary GAL4 domain not fused to a second protein.

B1: GBT-A1 (G4BD-CNA1) (other)
chain: MKLLSSIEQACDICRLKKLKCSKEKPKCAKCLKNNWECRYSPKTKRSPLTRAHLTEVESRLERLEQLFLLIFPREDLDMILKMDSLQDIKALLTGLFVQDNVNKDAVTDRLASVETDMPLTLRQHRISATSSSEESSNKGQRQLTVSMSKDLNSSRIKIIKPNDSYIKVDRKKDLTKYELENGKVISTKDRSYASVPAITGKIPSDEEVFDSKTGLPNHSFLREHFFHEGRLSKEQAIKILNMSTVALSKEPNLLKLKAPITICGDIHGQYYDLLKLFEVGGDPAEIDYLFLGDYVDRGAFSFECLIYLYSLKLNNLGRFWMLRGNHECKHLTSYFTFKNEMLHKYDMEVYDACCRSFNVLPLAALMNGQYFCVHGGISPELKSVEDVNKINRFREIPSRGLMCDLLWADPVENYDDARDGSEFDQSEDEFVPNSLRGCSFAFTFKASCKFLKANGLLSIIRAHEAQDAGYRMYKNNKVTGFPSLITMFSAPNYLDTYHNKAAVLKYEENVMNIRQFHMSPHPYWLPDFMDVFTWSLPFVGEKVTSMLVSILNICSEQELDPESEPKAAEETVKARANATKETGTPSDEKASSAILEDETRRKALRNKILAIAKVSRMFSVLREESEKVEYLKTMNAGVLPRGALARGTEGLNETLSTFEKARKEDLINEKLPPSLSEVEQEKIKYYEKILKGAEKKPQL
Turning to B1, the binding result is “no binding”.

B2: GBT-A2 (G4BD-CNA2) (other)
chain: MKLLSSIEQACDICRLKKLKCSKEKPKCAKCLKNNWECRYSPKTKRSPLTRAHLTEVESRLERLEQLFLLIFPREDLDMILKMDSLQDIKALLTGLFVQDNVNKDAVTDRLASVETDMPLTLRQHRISATSSSEESSNKGQRQLTVSMSSDAIRNTEQINAAIKIIENKTERPQSSTTPIDSKASTVAAANSTATETSRDLTQYTLDDGRVVSTNRRIMNKVPAITSHVPTDEELFQPNGIPRHEFLRDHFKREGKLSAAQAARIVTLATELFSKEPNLISVPAPITVCGDIHGQYFDLLKLFEVGGDPATTSYLFLGDYVDRGSFSFECLIYLYSLKLNFNDHFWLLRGNHECKHLTSYFTFKNEMLHKYNLDIYEKCCESFNNLPLAALMNGQYLCVHGGISPELNSLQDINNLNRFREIPSHGLMCDLLWADPIEEYDEVLDKDLTEEDIVNSKTMVPHHGKMAPSRDMFVPNSVRGCSYAFTYRAACHFLQETGLLSIIRAHEAQDAGYRMYKNTKTLGFPSLLTLFSAPNYLDTYNNKAAILKYENNVMNIRQFNMTPHPYWLPDFMDVFTWSLPFVGEKVTEMLVAILNICTEDELENDTPVIEELVGTDKKLPQAGKSEATPQPATSASPKHASILDDEHRRKALRNKILAVAKVSRMYSVLREETNKVQFLKDHNSGVLPRGALSNGVKGLDEALSTFERARKHDLINEKLPPSLDELKNENKKYYEKVWQKVHEHDAKNDSK
Consider B2, for which the binding result is “no binding”.

The values are drawn from patent publication US5723436, “Calcineurin interacting protein compositions and methods” (The Board of Trustees of the Leland Stanford Junior …, dated 1998).
